In US7858084B2, “Methods of treatment with renalase (monoamine oxidase C)” (Yale University, priority 2005, dated 2010):
Entries after “also recorded” stand apart in the source; their conditions may differ.

B1: renalase: recombinant renalase protein made in E. coli, refolded before administration; secreted FAD-containing monoamine oxidase of the kidney (protein)
chain: ALLRKEITAPLYLALWDKAGDIGGRMTTANSPHNPRCTADLGAQYITCTPHYAKKHQNFYEELLAHGILEPLTSPIKGMEVKEGESNFVAPHGVSSIIKYYLKESGAEVFLRQCVTQINLRDNKWEVSEDTGSTQQFDLVILTMPAPQILGLQGDIVNLISERQRQQLASVSYSSRYALGLFYEAGMKIDVPWAGQYITSNPCIRFISIDSKKRNTESSECGPLLVVHTTVPFGVTHLEHSEEDVQELITQQLETILPGLPPPVATKCWKWRYSQVTNSAANSPGQMTLHLNPFLIYI
B2: protein isolated from human blood: native renalase isolated from human blood under basal conditions (protein, UniProt Q5VYX0 18-342, looked up)
Renalase: ALLRRQTSGPLYLAVWDKAEDSGGRMTTACSPHNPQCTADLGAQYITCTPHYAKKHQRFYDELLAYGVLRPLSSPIEGMVMKEGDCNFVAPQGISSIIKHYLKESGAEVYFRHRVTQINLRDDKWEVSKQTGSPEQFDLIVLTMPVPEILQLQGDITTLISECQRQQLEAVSYSSRYALGLFYEAGTKIDVPWAGQYITSNPCIRFVSIDNKKRNIESSEIGPSLVIHTTVPFGVTYLEHSIEDVQELVFQQLENILPGLPQPIATKCQKWRHSQVTNAAANCPGQMTLHHKPFLACGGDGFTQSNFDGCITSALCVLEALKNYI
B3: renalase isolated from human urine: native renalase isolated from human urine (protein, UniProt Q5VYX0 18-342, looked up)
Renalase: ALLRRQTSGPLYLAVWDKAEDSGGRMTTACSPHNPQCTADLGAQYITCTPHYAKKHQRFYDELLAYGVLRPLSSPIEGMVMKEGDCNFVAPQGISSIIKHYLKESGAEVYFRHRVTQINLRDDKWEVSKQTGSPEQFDLIVLTMPVPEILQLQGDITTLISECQRQQLEAVSYSSRYALGLFYEAGTKIDVPWAGQYITSNPCIRFVSIDNKKRNIESSEIGPSLVIHTTVPFGVTYLEHSIEDVQELVFQQLENILPGLPQPIATKCQKWRHSQVTNAAANCPGQMTLHHKPFLACGGDGFTQSNFDGCITSALCVLEALKNYI

Columns and labels:
[1] = blood pressure and heart rate in conscious mice; format: in vivo
Protocol: We also tested the effect of renalase on blood pressure and heart rate in conscious mice. Recombinant renalase was prepared using the method described in Example 3 of PCT/US05/009248, which is specifically and completely incorporated herein by reference. As explained in more detail therein, the recombinant protein made in E. coli as used in the examples herein is refolded before administration. Thus, the recombinant renalase protein as used herein is in the active form (i.e., it is active renalase as defined above).
The recombinant protein was given by tail vein injection (100 μg) or retroorbital injection (1 mg) and ambulatory blood pressure and heart rates were measured continuously for 24 hours.

[2] = system: isolated perfused mouse heart; assay: isolated perfused mouse heart model of ischemia-reperfusion
From the text: Since renalase can metabolize catecholamines, we tested whether it could protect against ischemic myocardial damage.

[3] = infusion of recombinant renalase into rats; format: in vivo
[4] = amine oxidase activity in vitro of renalase isolated from blood and urine; format: biochemical, human; conditions: basal conditions
From the text: We have tested renalase isolated from blood and urine.

Molecule	mean blood pressure ([1]; 100 μg by tail injection)	minute-to-minute variability in blood pressure ([1]; 100 μg by tail injection, conscious mice)	heart rate ([1]; 100 μg by tail injection, for several hours)	blood pressure ([1]; 1 mg by retroorbital injection)	heart rate ([1]; 1 mg by retroorbital injection)	reversibility of the blood pressure effect ([1]; continuous IV infusion, after stopping)	blood pressure ([1]; continuous infusion by tail vein, 20 μg/minute, during the period of infusion)	myocardial (left ventricular) function ([2]; infusion from 10 minutes before 15 min global ischemia until 2 hours after reperfusion, versus control protein glutathione synthase)	decrease of myocardial necrosis ([2]; ischemia-reperfusion, n=3, p<0.001) [%]	blood pressure [3]	heart rate [3]	amine oxidase activity in vitro [4]
B1	remained unchanged	decreased	significantly increased	significant and long-lasting fall	significant and long-lasting fall	reversible	reduction in blood pressure	preserved myocardial function significantly better; also recorded: preserves left ventrical (LV) function	54	reduction	lower	
B2												no significant amine oxidase activity
B3												metabolizes catecholamines
